Patent US20190374506A1 (BETH ISREAL DEACONESS MEDICAL CENTER, published 2019)

Tests used:
[1] = biological target: T1, Flag-WWP1 ΔWW domain (deletion 341-547) (Homo sapiens (Human), UniProt Q9H0M0 1-922); test: immunoprecipitation and western blot, 293 cells (FIG. 4E)
T1 construct: The two kept ranges are counted on the 922-residue WWP1 entry; not shown: Flag tag
T1 sequence: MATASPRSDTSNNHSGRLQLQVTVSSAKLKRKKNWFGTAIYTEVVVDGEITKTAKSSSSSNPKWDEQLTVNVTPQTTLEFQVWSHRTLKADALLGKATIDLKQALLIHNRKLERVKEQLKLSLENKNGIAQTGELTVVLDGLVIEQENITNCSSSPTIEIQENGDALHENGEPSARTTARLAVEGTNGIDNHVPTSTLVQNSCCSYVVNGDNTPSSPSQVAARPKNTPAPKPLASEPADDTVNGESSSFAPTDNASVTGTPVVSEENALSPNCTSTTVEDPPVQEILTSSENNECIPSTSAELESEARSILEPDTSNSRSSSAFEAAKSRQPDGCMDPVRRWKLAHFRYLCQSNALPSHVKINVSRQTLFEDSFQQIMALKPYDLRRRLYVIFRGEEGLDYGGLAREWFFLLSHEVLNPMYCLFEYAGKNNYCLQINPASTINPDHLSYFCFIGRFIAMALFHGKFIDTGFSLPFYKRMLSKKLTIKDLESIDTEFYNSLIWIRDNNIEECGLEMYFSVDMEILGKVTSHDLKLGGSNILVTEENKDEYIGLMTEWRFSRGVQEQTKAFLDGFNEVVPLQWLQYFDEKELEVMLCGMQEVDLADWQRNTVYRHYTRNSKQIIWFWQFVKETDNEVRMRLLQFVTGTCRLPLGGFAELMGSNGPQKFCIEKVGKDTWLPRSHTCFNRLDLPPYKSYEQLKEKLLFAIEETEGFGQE
Description: Lysates of 293 cells transfected with indicated constructs were analysed by immunoprecipitation and/or western blot with indicated antibodies.
Western Blotting and Immunoprecipitation. For western blotting, cells were lysed in RIPA buffer (Boston BioProducts) supplemented with protease (Roche) and phosphatase (Roche) inhibitor. Proteins were separated on NuPAGE 4-12% Bis-Tris gradient gels (Invitrogen), transferred to polyvinylidine difluoride membranes (Immobilon P, Millipore) and the blots were probed with the indicated antibodies. For immunoprecipitation, PC3, 293T and MEF cells were transfected with the indicated expression vectors by using LIPOFECTAMIN 2000 (Life Technologies). 24 hours after transfection, cells were lysed in RIPA buffer with protease (Roche) and phosphatase (Roche) inhibitor. 500 μg of total lysates were pre-cleared for 30 minutes at 4° C., and then immunoprecipitated with anti-Myc (Cell Signaling Technology 9B11, 1:500), or anti-PTEN (Cell Signaling Technology 9559, 1:500) antibody overnight at 4° C. The Protein-A or Protein-G sepharose beads (GE Healthcare) were then added and incubated for another 2 hours. The immunoprecipitates were washed with RIPA buffer three times. […]

[2] = biological target: T2, WW domain containing E3 ubiquitin protein ligase 1 (WWP1) (human, UniProt Q9H0M0 1-922, limits assumed); test: anti-PTEN immunoprecipitation from DU145 cells, western blot (FIG. 2B)
T2 construct: also called endogenous WWP1; WW domain-containing protein-1

B1: Phosphatase And Tensin Homolog Deleted On Chromosome Ten (PTEN) (enzyme)
chain: not shown
notes: also called endogenous PTEN; PTEN WT
[1]
  binding result: no binding
[2]
  binding result: binds
